Source: the supplement of paper PMC9112550, “Optimization of the antimicrobial peptide Bac7 by deep mutational scanning” (BMC Biology, 2022)

Tested on: Escherichia coli TOP10
Test: shrunken log2 fold change of peptide-encoding DNA abundance (4.5 h post-induction vs induction); higher = less antimicrobial activity (less host growth inhibition)
Conditions: time post-induction: 4.5 h; library: site-saturation at positions 5, 18, 19, 20
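Further: peptides expressed intracellularly from a pBAD plasmid library in pooled LB shake-flask culture, induced with 0.3% L-arabinose, DNA abundance read by NGS, three biological replicates, DESeq2 with apeglm shrinkage.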

Sequence	shrunken log2 fold change
RRIRQRPPRLPRPRPRPWGSPRP	-0.0209
RRIRQRPPRLPRPRPRPWHPPRP	-0.0543
RRIRQRPPRLPRPRPRPWIVPRP	-0.0927
RRIRQRPPRLPRPRPRPWKTPRP	-0.0168
RRIRQRPPRLPRPRPRPWMCPRP	0.00702
RRIRQRPPRLPRPRPRPWPDPRP	-0.0854
RRIRQRPPRLPRPRPRPWPLPRP	-0.0625
RRIRQRPPRLPRPRPRPWQQPRP	-0.333
RRIRQRPPRLPRPRPRPWQRPRP	-0.0557
RRIRQRPPRLPRPRPRPWRDPRP	0.19
RRIRQRPPRLPRPRPRPWTAPRP	-0.264
RRIRQRPPRLPRPRPRPWTEPRP	0.0355
RRIRQRPPRLPRPRPRPWVEPRP	0.0249
RRIRQRPPRLPRPRPRPWVHPRP	-0.0494
RRIRQRPPRLPRPRPRPWVLPRP	0.0639
RRIRQRPPRLPRPRPRPWYIPRP	-0.0906
RRIRQRPPRLPRPRPRPYCNPRP	-1.38
RRIRQRPPRLPRPRPRPYEKPRP	-0.0946
RRIRQRPPRLPRPRPRPYFCPRP	-0.396
RRIRQRPPRLPRPRPRPYFKPRP	-0.454
RRIRQRPPRLPRPRPRPYGVPRP	-0.0132
RRIRQRPPRLPRPRPRPYHHPRP	-0.186
RRIRQRPPRLPRPRPRPYHLPRP	-0.00174
RRIRQRPPRLPRPRPRPYICPRP	-0.102
RRIRQRPPRLPRPRPRPYIIPRP	-0.332

Sequence	shrunken log2 fold change
RRIRQRPPRLPRPRPRPYKLPRP	-0.603
RRIRQRPPRLPRPRPRPYLDPRP	-0.286
RRIRQRPPRLPRPRPRPYLHPRP	-0.117
RRIRQRPPRLPRPRPRPYLYPRP	-0.838
RRIRQRPPRLPRPRPRPYMGPRP	-0.00992
RRIRQRPPRLPRPRPRPYNHPRP	-0.047
RRIRQRPPRLPRPRPRPYQFPRP	-0.168
RRIRQRPPRLPRPRPRPYQIPRP	-0.227
RRIRQRPPRLPRPRPRPYQLPRP	-0.00448
RRIRQRPPRLPRPRPRPYQPPRP	-0.0272
RRIRQRPPRLPRPRPRPYSNPRP	-0.0703
RRIRQRPPRLPRPRPRPYVDPRP	-0.431
RRIRQRPPRLPRPRPRPYWVPRP	-0.264
RRIRQRPPRLPRPRPRPYYRPRP	-0.124
RRIRRRPPRLPRPRPRPAAGPRP	0.326
RRIRRRPPRLPRPRPRPAARPRP	0.287
RRIRRRPPRLPRPRPRPACAPRP	0.727
RRIRRRPPRLPRPRPRPACVPRP	0.451
RRIRRRPPRLPRPRPRPADIPRP	-0.0589
RRIRRRPPRLPRPRPRPAELPRP	-0.0392
RRIRRRPPRLPRPRPRPAENPRP	0.0557
RRIRRRPPRLPRPRPRPAHMPRP	0.405
RRIRRRPPRLPRPRPRPALFPRP	0.128
RRIRRRPPRLPRPRPRPALLPRP	-0.0136
RRIRRRPPRLPRPRPRPAMDPRP	0.0975

Sequence	shrunken log2 fold change
RRIRRRPPRLPRPRPRPANEPRP	0.245
RRIRRRPPRLPRPRPRPANNPRP	-0.0615
RRIRRRPPRLPRPRPRPAPLPRP	0.857
RRIRRRPPRLPRPRPRPAPMPRP	0.957
RRIRRRPPRLPRPRPRPAQAPRP	0.233
RRIRRRPPRLPRPRPRPAQEPRP	0.146
RRIRRRPPRLPRPRPRPAQGPRP	-0.179
RRIRRRPPRLPRPRPRPAQQPRP	0.938
RRIRRRPPRLPRPRPRPAQVPRP	-0.0303
RRIRRRPPRLPRPRPRPARLPRP	0.269
RRIRRRPPRLPRPRPRPASGPRP	0.302
RRIRRRPPRLPRPRPRPASLPRP	0.338
RRIRRRPPRLPRPRPRPASSPRP	-0.0219
RRIRRRPPRLPRPRPRPATPPRP	0.783
RRIRRRPPRLPRPRPRPAVRPRP	0.0847
RRIRRRPPRLPRPRPRPAWCPRP	0.568
RRIRRRPPRLPRPRPRPAWRPRP	0.504
RRIRRRPPRLPRPRPRPAWVPRP	1.75
RRIRRRPPRLPRPRPRPAYTPRP	-0.0735
RRIRRRPPRLPRPRPRPAYYPRP	0.0681
RRIRRRPPRLPRPRPRPCAWPRP	0.0864
RRIRRRPPRLPRPRPRPCDKPRP	-0.00163
RRIRRRPPRLPRPRPRPCERPRP	0.137
RRIRRRPPRLPRPRPRPCFTPRP	-0.156
RRIRRRPPRLPRPRPRPCFYPRP	-0.187

Sequence	shrunken log2 fold change
RRIRRRPPRLPRPRPRPCGTPRP	0.363
RRIRRRPPRLPRPRPRPCGVPRP	0.0719
RRIRRRPPRLPRPRPRPCHAPRP	-0.0577
RRIRRRPPRLPRPRPRPCHVPRP	-0.238
RRIRRRPPRLPRPRPRPCIDPRP	-0.211
RRIRRRPPRLPRPRPRPCINPRP	2.42
RRIRRRPPRLPRPRPRPCIPPRP	-0.867
RRIRRRPPRLPRPRPRPCLRPRP	-0.0202
RRIRRRPPRLPRPRPRPCMEPRP	-0.174
RRIRRRPPRLPRPRPRPCNAPRP	-0.105
RRIRRRPPRLPRPRPRPCQHPRP	-0.153
RRIRRRPPRLPRPRPRPCTAPRP	0.866
RRIRRRPPRLPRPRPRPCWPPRP	0.0865
RRIRRRPPRLPRPRPRPDAHPRP	-0.00208
RRIRRRPPRLPRPRPRPDAIPRP	-0.0233
RRIRRRPPRLPRPRPRPDAYPRP	0.249
RRIRRRPPRLPRPRPRPDEEPRP	0.526
RRIRRRPPRLPRPRPRPDEKPRP	0.135
RRIRRRPPRLPRPRPRPDFSPRP	-0.18
RRIRRRPPRLPRPRPRPDGYPRP	-0.0109
RRIRRRPPRLPRPRPRPDHDPRP	0.335
RRIRRRPPRLPRPRPRPDHLPRP	-0.0237
RRIRRRPPRLPRPRPRPDHQPRP	-0.18
RRIRRRPPRLPRPRPRPDIQPRP	0.0298
RRIRRRPPRLPRPRPRPDKFPRP	0.0835

Sequence	shrunken log2 fold change
RRIRRRPPRLPRPRPRPDKHPRP	0.157
RRIRRRPPRLPRPRPRPDLIPRP	0.0201
RRIRRRPPRLPRPRPRPDLNPRP	0.16
RRIRRRPPRLPRPRPRPDNLPRP	0.000421
RRIRRRPPRLPRPRPRPDNSPRP	-0.078
RRIRRRPPRLPRPRPRPDPVPRP	0.0811
RRIRRRPPRLPRPRPRPDQEPRP	0.0223
RRIRRRPPRLPRPRPRPDTQPRP	0.162
RRIRRRPPRLPRPRPRPDVFPRP	0.06
RRIRRRPPRLPRPRPRPDYDPRP	-0.0449
RRIRRRPPRLPRPRPRPDYTPRP	-0.0883
RRIRRRPPRLPRPRPRPEAAPRP	1.31
RRIRRRPPRLPRPRPRPEAEPRP	0.853
RRIRRRPPRLPRPRPRPEAMPRP	-0.0491
RRIRRRPPRLPRPRPRPECHPRP	0.171
RRIRRRPPRLPRPRPRPEDYPRP	0.252
RRIRRRPPRLPRPRPRPEESPRP	1.5
RRIRRRPPRLPRPRPRPEFNPRP	0.25
RRIRRRPPRLPRPRPRPEFQPRP	-0.0288
RRIRRRPPRLPRPRPRPEGTPRP	0.28
RRIRRRPPRLPRPRPRPEHNPRP	0.183
RRIRRRPPRLPRPRPRPEINPRP	-0.0385
RRIRRRPPRLPRPRPRPEIYPRP	0.0166
RRIRRRPPRLPRPRPRPEKSPRP	0.0868
RRIRRRPPRLPRPRPRPELFPRP	1.06

Sequence	shrunken log2 fold change
RRIRRRPPRLPRPRPRPEMGPRP	0.626
RRIRRRPPRLPRPRPRPENAPRP	0.115
RRIRRRPPRLPRPRPRPEPNPRP	-0.00852
RRIRRRPPRLPRPRPRPEQAPRP	-0.0266
RRIRRRPPRLPRPRPRPEQCPRP	-0.00836
RRIRRRPPRLPRPRPRPERMPRP	0.222
RRIRRRPPRLPRPRPRPESEPRP	0.0778
RRIRRRPPRLPRPRPRPEVQPRP	-0.00368
RRIRRRPPRLPRPRPRPEVRPRP	0.176
RRIRRRPPRLPRPRPRPEWMPRP	0.126
RRIRRRPPRLPRPRPRPEYDPRP	0.109
RRIRRRPPRLPRPRPRPEYLPRP	-0.0446
RRIRRRPPRLPRPRPRPFDRPRP	0.542
RRIRRRPPRLPRPRPRPFDSPRP	-0.21
RRIRRRPPRLPRPRPRPFEHPRP	-0.0715
RRIRRRPPRLPRPRPRPFEWPRP	-0.0864
RRIRRRPPRLPRPRPRPFFIPRP	-0.0305
RRIRRRPPRLPRPRPRPFFRPRP	0.354
RRIRRRPPRLPRPRPRPFGFPRP	0.197
RRIRRRPPRLPRPRPRPFGGPRP	0.0433
RRIRRRPPRLPRPRPRPFGTPRP	0.0468
RRIRRRPPRLPRPRPRPFHHPRP	-0.0883
RRIRRRPPRLPRPRPRPFHRPRP	0.0574
RRIRRRPPRLPRPRPRPFKWPRP	-0.157
RRIRRRPPRLPRPRPRPFLQPRP	0.117
